Assay results reported in PMC10397247.

T1: P6bH1
T1 chain: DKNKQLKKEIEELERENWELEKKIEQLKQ

T2: 4H967-bN
T2 chain: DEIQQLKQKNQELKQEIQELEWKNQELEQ

T3: 4H883-bN
T3 chain: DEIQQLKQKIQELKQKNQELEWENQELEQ

T4: 4H968-bN
T4 chain: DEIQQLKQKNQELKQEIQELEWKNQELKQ

T5: 4H953-bN
T5 chain: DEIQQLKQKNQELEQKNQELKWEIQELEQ

T6: 4H918-bN
T6 chain: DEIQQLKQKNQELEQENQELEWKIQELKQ

T7: 4H908-bN
T7 chain: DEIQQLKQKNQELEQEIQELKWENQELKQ

T8: 4H855-bN
T8 chain: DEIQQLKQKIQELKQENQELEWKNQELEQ

T9: 4H797-bN
T9 chain: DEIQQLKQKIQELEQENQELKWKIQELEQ

T10: P12bH1
T10 chain: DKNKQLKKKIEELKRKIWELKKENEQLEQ

T11: P5bH1
T11 chain: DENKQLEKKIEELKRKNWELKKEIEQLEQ

T12: P8bH1
T12 chain: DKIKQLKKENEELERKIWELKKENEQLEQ

T13: P2bH1
T13 chain: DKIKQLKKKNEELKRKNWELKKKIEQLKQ

T14: P9bH1
T14 chain: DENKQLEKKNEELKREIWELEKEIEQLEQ

T15: P7bH1
T15 chain: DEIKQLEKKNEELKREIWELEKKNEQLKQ

T16: P1bH1
T16 chain: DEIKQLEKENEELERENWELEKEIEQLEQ

T17: P3bH1
T17 chain: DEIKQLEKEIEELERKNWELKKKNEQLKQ

T18: P4bH1
T18 chain: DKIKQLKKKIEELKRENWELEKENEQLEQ


How the values were obtained:
Test in all cases: two-hybrid library CCNG1;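 further: natural log of median RNA to DNA barcode read ratio; higher means stronger binding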
P6bH1 = target: T1, P6bH1
4H967-bN = target: T2, 4H967-bN
4H883-bN = target: T3, 4H883-bN
4H968-bN = target: T4, 4H968-bN
4H953-bN = target: T5, 4H953-bN
4H918-bN = target: T6, 4H918-bN
4H908-bN = target: T7, 4H908-bN
4H855-bN = target: T8, 4H855-bN
4H797-bN = target: T9, 4H797-bN
P12bH1 = target: T10, P12bH1
P5bH1 = target: T11, P5bH1
P8bH1 = target: T12, P8bH1
P2bH1 = target: T13, P2bH1
P9bH1 = target: T14, P9bH1
P7bH1 = target: T15, P7bH1
P1bH1 = target: T16, P1bH1
P3bH1 = target: T17, P3bH1
P4bH1 = target: T18, P4bH1

Row | Binder | interaction score (P6bH1) | interaction score (4H967-bN) | interaction score (4H883-bN) | interaction score (4H968-bN) | interaction score (4H953-bN) | interaction score (4H918-bN) | interaction score (4H908-bN) | interaction score (4H855-bN) | interaction score (4H797-bN) | interaction score (P12bH1) | interaction score (P5bH1) | interaction score (P8bH1) | interaction score (P2bH1) | interaction score (P9bH1) | interaction score (P7bH1) | interaction score (P1bH1) | interaction score (P3bH1) | interaction score (P4bH1)
1 | DEIQQLKQKIQELEQENQELKWKIQELEQ [4H797-bN] | 0.0343 | -0.535 | -1.53 | -1.06 | -0.455 | 1.02 | -0.753 | 0.668 | 0.569 | -0.66 |  |  |  |  |  |  |  | 
2 | DKNKQLKKKIEELKRKIWELKKENEQLEQ [P12bH1] | -0.251 |  |  |  |  |  |  |  |  | -1.4 | -0.826 | -0.578 | -1.01 | -0.294 | -0.861 | -0.0192 | -1.43 | -0.999
